In series [1] the target is T1, (5)KDPGA(10F) peptide, M. mazei MtrA-derived.
T1 chain: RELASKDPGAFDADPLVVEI

Series [2] deals with T2, PGA(10F) peptide, M. jannaschii MtrA-derived.
T2 chain: PGAIDEDPFIIEL

Series [3] has as its target T3, (15)KDPGA(10) peptide, M. jannaschii MtrA-derived, without fluorophore.
T3 chain: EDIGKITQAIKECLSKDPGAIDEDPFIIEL

Series [4] has as its target T4, PGA(10) peptide, M. mazei MtrA-derived.
T4 chain: PGAFDADPLVVEI

The target of series [5] is T5, (0)KDPGA(10) peptide, M. mazei MtrA-derived.
T5 chain: KDPGAFDADPLVVEI

For series [6], the target named is T6, PGA(5) peptide, M. mazei MtrA-derived.
T6 chain: PGAFDADP

In series [7] the target is T7, M. mazei Ub-(5)KDPGA(15) with N-terminal His-tag.
T7 chain: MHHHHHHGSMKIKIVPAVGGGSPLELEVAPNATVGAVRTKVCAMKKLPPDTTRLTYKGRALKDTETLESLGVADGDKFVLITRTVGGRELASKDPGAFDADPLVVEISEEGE

Series [8] concerns the target T8, M. mazei PGA(15)-Ub with C-terminal His-tag.
T8 chain: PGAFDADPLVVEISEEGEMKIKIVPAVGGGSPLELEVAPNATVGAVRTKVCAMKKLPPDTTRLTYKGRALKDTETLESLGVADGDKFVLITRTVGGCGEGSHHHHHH

Series [9] concerns the target T9, PGA(10) peptide, M. jannaschii MtrA-derived.
T9 chain: PGAIDEDPFIIEL

Series [10] has as its target T10, (15)KDPGA(10F) peptide, M. jannaschii MtrA-derived.
T10 chain: T3 chain

B1: M. mazei Adriase with C-terminal His-tag (protein)
chain: TLVIAFIGKNGAVMAGDMREITFEGEKPDREKLEKELYSGSIVTDEEMQKKAEEFGVKITVADCKEKVSERNGVLVGEVSSAEGGVVKKRRLYASAGNFAIAELINTEMTLTSQGKGSNFIAFGNEFTKQVANKCFKDNWTKKSNLQDAVKILILCMETVARKTASVSKQFMIVQTASNADVLKVVEKDRNCGSHHHHHH
Regarding B1, in [1], the “maximum ligation rate, ligation of (5)KDPGA(10F) with PGA(10), Michaelis-Menten fit” value is “a maximum rate of ~2.25 ligations per enzyme and second”; the “substrate concentration at half maximal reaction speed, ligation of (5)KDPGA(10F) with PGA(10)” value is reported as “The half maximal reaction speed is observed at a substrate concentration of ~9 µM each”. Also, the “ligase activity with M. jannaschii (15)KDPGA(10) and PGA(10F) peptides, fluorescent product on SDS-PAGE” value in series [2] was “also M. mazei Adriase showed activity when incubated with the M. jannaschii derived peptides”. Further, the “ligase activity with M. jannaschii (15)KDPGA(10) and PGA(10F) peptides, fluorescent product on SDS-PAGE” value in series [3] is “also M. mazei Adriase showed activity when incubated with the M. jannaschii derived peptides”. In addition, in series [4], the “maximum ligation rate, ligation of (5)KDPGA(10F) with PGA(10), Michaelis-Menten fit” value is “a maximum rate of ~2.25 ligations per enzyme and second”; the “substrate concentration at half maximal reaction speed, ligation of (5)KDPGA(10F) with PGA(10)” value is “The half maximal reaction speed is observed at a substrate concentration of ~9 µM each”. In [5], the “ligase activity with (0)KDPGA(10) as primary and PGA(15)-Ub as secondary substrate, SDS-PAGE time course” value was “No Adriase activity was observed with (0)KDPGA(10) or PGA(5) substrates (n.d.; SEQ ID NO: 531 and 529)”. In addition, the “ligase activity with PGA(5) as secondary and Ub-(5)KDPGA(15) as primary substrate, SDS-PAGE time course” value in [6] is “No Adriase activity was observed with (0)KDPGA(10) or PGA(5) substrates (n.d.; SEQ ID NO: 531 and 529)”. Moreover, in series [7], the “ligation rate coefficient at 25 µM substrate, ligation of Ub-(5)KDPGA(15) with PGA(15)-Ub” value was 0.74±0.05 sec^-1 at 25 µM; the “ligation rate coefficient at 50 µM substrate, ligation of Ub-(5)KDPGA(15) with PGA(15)-Ub” value is on record as 0.88±0.07 sec^-1 at 50 µM; the “ligation rate coefficient at 100 µM substrate, ligation of Ub-(5)KDPGA(15) with PGA(15)-Ub” value is 0.90±0.14 sec^-1 at 100 µM substrate concentration; the “maximum rate of the protein-protein ligation of Ub-(5)KDPGA(15) with PGA(15)-Ub” value was “a maximum rate of 0.92 ligations per enzyme and second”. Further, in series [7], the “substrate concentration at the half-maximum rate, ligation of Ub-(5)KDPGA(15) with PGA(15)-Ub” value is “the half-maximum rate is observed at a substrate concentration of 2.2 µM each”. Further, in [8], the “ligation rate coefficient at 25 µM substrate, ligation of Ub-(5)KDPGA(15) with PGA(15)-Ub” value is 0.74±0.05 sec^-1 at 25 µM; the “ligation rate coefficient at 50 µM substrate, ligation of Ub-(5)KDPGA(15) with PGA(15)-Ub” value was determined as 0.88±0.07 sec^-1 at 50 µM; the “ligation rate coefficient at 100 µM substrate, ligation of Ub-(5)KDPGA(15) with PGA(15)-Ub” value is given as 0.90±0.14 sec^-1 at 100 µM substrate concentration; the “maximum rate of the protein-protein ligation of Ub-(5)KDPGA(15) with PGA(15)-Ub” value is “a maximum rate of 0.92 ligations per enzyme and second”. Further, the “substrate concentration at the half-maximum rate, ligation of Ub-(5)KDPGA(15) with PGA(15)-Ub” value in series [8] is “the half-maximum rate is observed at a substrate concentration of 2.2 µM each”.

B2: M. jannaschii Adriase with C-terminal His-tag (protein)
chain: SLIICYYGKNGAVIGGDRRQIFFRGSEENRKILEEKLYSGEIKSEEELYKLAEKLNIKIIIEDDREKVRKISDSVVCGEVRSLGIDAKRRRVYATKGKCAIVDILNDTVTNQTIKEGFGIVVLGNRFLKKKAEEELKRTAKLFPMMPIQQIEDAIKEIFEKLKWHPTVSKEYDIYSVNKYEKNFEEVIKKDIESLFKYREQLRKQLIDFGKVMSIVNKIVKNGEIGVIKDGKLHLYDDYIAIDKIDPNPKVFKVVDVEGNFKDGDIVVIENGDMKIKGTNEKVTTKYIIIHKGSHHHHHH
As to B2, in series [9], the “maximum ligation rate, recombination of (15)KDPGA(10F) with PGA(10), Michaelis-Menten fit” value was “maximum rate of ~1.4 ligations per enzyme and second”; the “substrate concentration at half maximal reaction speed, recombination of (15)KDPGA(10F) with PGA(10)” value is “The half maximal reaction speed is observed at a substrate concentration of 23 µM each”. In series [10], the “maximum ligation rate, recombination of (15)KDPGA(10F) with PGA(10), Michaelis-Menten fit” value is “maximum rate of ~1.4 ligations per enzyme and second”; the “substrate concentration at half maximal reaction speed, recombination of (15)KDPGA(10F) with PGA(10)” value is “The half maximal reaction speed is observed at a substrate concentration of 23 µM each”.

Values taken from patent US20260275319.
